Reference: publication PMC10275993

Target: acidic H8 loop of karyopherin β2 (KAPB2-H8)
Assay: turbidity (OD600) of liquid-liquid phase separation, critical salt concentration; 50 μM R-DPR peptide mixed with 50 μM KAPB2-H8 peptide in 10 mM HEPES pH 7.4 with 0 to 400 mM NaCl; droplets also imaged by confocal microscopy

PRPRPRPRPRPRPRPRPRPRPRPRPRPRPRPRPRPRPRPR [(PR)20]
critical salt concentration (NaCl at which the droplets disappeared): 250 mM

GRGRGRGRGRGRGRGRGRGRGRGRGRGRGRGRGRGRGRGR [(GR)20]
NaCl concentration until which the droplets remained: 300 mM
